Assay [1] concerns the target T1, hPRLR.mmh (soluble monomeric human PRLR) (human).
T1 construct: soluble monomeric PRLR protein
T1 chain: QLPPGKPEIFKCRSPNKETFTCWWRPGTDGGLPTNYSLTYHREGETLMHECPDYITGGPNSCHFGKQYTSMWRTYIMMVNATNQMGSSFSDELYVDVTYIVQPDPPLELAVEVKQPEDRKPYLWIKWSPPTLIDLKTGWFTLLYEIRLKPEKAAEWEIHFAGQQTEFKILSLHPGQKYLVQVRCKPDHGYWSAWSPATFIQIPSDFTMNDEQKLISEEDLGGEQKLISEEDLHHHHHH
Put plainly: SPR (Biacore), antibody capture, 37 C. As to the method: (§1) Measurements were conducted on a T200 Biacore instrument. Kinetic association (kₐ) and dissociation (kd) rate constants were determined by processing and fitting the data to a 1:1 binding model using Scrubber 2.0 curve fitting software.

Assay [2] concerns the target T2, hPRLR.mFc (soluble dimeric human PRLR) (human).
T2 construct: dimeric PRLR construct
T2 chain: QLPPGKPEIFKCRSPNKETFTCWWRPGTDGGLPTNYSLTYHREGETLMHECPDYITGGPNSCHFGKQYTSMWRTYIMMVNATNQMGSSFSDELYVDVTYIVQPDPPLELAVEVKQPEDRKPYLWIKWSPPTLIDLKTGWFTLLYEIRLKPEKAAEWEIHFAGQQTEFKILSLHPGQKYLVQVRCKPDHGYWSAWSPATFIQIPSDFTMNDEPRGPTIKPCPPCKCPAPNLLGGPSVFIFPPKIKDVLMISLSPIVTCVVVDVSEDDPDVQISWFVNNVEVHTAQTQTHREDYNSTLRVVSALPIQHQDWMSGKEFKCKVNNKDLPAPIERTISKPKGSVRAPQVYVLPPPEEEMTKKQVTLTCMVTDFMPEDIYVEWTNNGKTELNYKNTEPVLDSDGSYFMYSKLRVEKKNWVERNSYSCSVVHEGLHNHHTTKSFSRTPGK
Put plainly: SPR (Biacore), antibody capture, 37 C. The procedure: as §1

The target of assay [3] is T3, mfPRLR.mmh (soluble monomeric macaca fascicularis PRLR) (macaca fascicularis).
T3 construct: soluble monomeric PRLR protein; also called macaca fascicularis (mf) PRLR.mmh; monkey PRLR
T3 chain: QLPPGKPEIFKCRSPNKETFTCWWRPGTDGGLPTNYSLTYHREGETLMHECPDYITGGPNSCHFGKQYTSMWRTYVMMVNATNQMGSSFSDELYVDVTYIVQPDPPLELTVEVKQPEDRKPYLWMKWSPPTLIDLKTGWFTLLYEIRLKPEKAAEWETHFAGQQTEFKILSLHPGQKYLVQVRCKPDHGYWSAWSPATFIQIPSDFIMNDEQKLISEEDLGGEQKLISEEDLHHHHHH
Put plainly: SPR (Biacore), antibody capture, 37 C. The procedure: as §1

The target of assay [4] is T4, monkey macaca fascicularis PRLR construct with an HA tag on HEK293/mfPRLR cells (macaca fascicularis, UniProt A0A2K5WXK1 25-619).
T4 construct: stably transfected into HEK293
T4 sequence: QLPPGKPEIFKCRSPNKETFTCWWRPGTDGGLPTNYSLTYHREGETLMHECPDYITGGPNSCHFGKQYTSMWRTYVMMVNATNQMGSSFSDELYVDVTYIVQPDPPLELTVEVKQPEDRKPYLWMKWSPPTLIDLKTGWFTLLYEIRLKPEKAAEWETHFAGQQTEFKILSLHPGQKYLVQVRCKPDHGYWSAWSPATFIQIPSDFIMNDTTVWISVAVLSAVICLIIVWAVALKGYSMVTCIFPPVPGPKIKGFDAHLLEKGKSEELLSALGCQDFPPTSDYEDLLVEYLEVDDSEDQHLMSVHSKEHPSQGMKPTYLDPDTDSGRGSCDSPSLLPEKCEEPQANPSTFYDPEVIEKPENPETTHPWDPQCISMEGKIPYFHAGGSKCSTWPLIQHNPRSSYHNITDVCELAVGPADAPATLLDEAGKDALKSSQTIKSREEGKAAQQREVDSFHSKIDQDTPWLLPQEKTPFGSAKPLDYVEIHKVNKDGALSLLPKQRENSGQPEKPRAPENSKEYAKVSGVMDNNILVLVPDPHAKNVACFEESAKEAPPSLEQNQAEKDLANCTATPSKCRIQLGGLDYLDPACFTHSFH
Put plainly: FACS on HEK293/mfPRLR cells.

For assay [5], the target named is T5, human PRLR on cells (endogenous on T47D, T47D#11, MCF7); introduced in HEK293/hPRLR/STAT5-Luc, 293/hPRLR, … (human, UniProt P16471 25-622).
T5 sequence: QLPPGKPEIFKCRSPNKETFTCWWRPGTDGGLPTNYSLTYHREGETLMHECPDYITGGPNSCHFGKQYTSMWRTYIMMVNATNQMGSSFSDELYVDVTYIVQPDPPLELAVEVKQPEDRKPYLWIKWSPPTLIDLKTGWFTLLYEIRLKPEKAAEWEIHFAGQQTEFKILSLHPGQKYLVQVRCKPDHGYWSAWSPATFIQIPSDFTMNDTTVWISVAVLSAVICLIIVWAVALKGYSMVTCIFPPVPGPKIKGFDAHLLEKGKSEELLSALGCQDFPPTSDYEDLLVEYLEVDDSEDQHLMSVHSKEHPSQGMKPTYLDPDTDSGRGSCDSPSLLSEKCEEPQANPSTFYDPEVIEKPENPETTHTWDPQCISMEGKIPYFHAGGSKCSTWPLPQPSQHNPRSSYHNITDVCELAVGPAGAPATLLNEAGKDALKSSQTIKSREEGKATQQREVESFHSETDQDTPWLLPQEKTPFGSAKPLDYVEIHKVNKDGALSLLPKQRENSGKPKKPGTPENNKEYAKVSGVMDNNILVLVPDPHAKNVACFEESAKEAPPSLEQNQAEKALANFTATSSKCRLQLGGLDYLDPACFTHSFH
Put plainly: cell-based or functional assay.

B1: H1H6958N2 (antibody, human IgG1, V domains shown)
VH: QVQLVESGGGVVQPGRSLRLSCGASGFTFRNYGMQWVRQGPGKGLEWVTLISFDGNDKYYADSVKGRFTISRDNSKNTLFLQMNSLRTEDTAVYYCARGGDFDYWGQGTLVTVSS
VL: DIQMTQSPSSLSASVGDRVTITCRASQDIRKDLGWYQQKPGKAPKRLIYAASSLHSGVPSRFSGSGSGTEFTLTISSLQPEDFATYYCLQHNSYPMYTFGQGTKLEIK
notes: also called H2M6958N2
As usually defined, the Kd is the free concentration of one partner at which half of the binding sites on the other are occupied at equilibrium, for simple one-to-one binding. In general, koff refers to the first-order rate constant of dissociation. By kon is commonly meant the rate constant with which the complex forms. In the case of B1, in assay [1], the Kd stood at 3.16 nM, the “T 1/2” value stood at 8.8 min, the koff stood at 0.00131 s⁻¹ and the kon was determined as 413000 M⁻¹ s⁻¹. Also, in assay [2], the Kd worked out at 0.167 nM, the “T 1/2” value turned out to be 83.3 min, the koff is 0.000139 s⁻¹ and the kon turned out to be 829000 M⁻¹ s⁻¹. Besides, in assay [3], the Kd was 4.08 nM, the “T 1/2” value stood at 8.6 min, the koff came to 0.00134 s⁻¹ and the kon was 328000 M⁻¹ s⁻¹. Besides, in assay [4], the “FACS Cell Binding (Fold Above Background)” value amounted to 30 fold. Besides, in assay [5], the “IC50 of Blocking 5 nM PRL [M] (STAT5-Luc reporter, HEK293/hPRLR/STAT5-Luc cells)” value was 1.98e-10 M and the “Percent Blocking at 100 nM Antibody (STAT5-Luc reporter)” value (shortened to “Percent Blocking at 100 nM Antibody”) is 100%.

B2: H1H6781P (antibody, human IgG1, V domains shown)
VH: EVQLVESGGDLVQPGESLRLSCTASGFTFNSYEMNWVRQAPGKGLEWVSYISSSGGTKYYVDSVKGRFTISRDNAKKSLYLQMNSLRADDTALYYCARLNGVDVFDIWGQGTMVTVSS
VL: DIQMTQSPSSLSASVGDRVTITCRASQDIFNYLAWFQQKPGKVPELLISAASTLQSGVPSRFSGSGSGTYFTLTISSLQPEDIATYYCQRYNSAPLTFGGGTKVEIK
notes: human IgG1 Fc (H1H)
Consider B2, for which, in assay [1], binding was characterised by a dissociation constant (Kd) of 0.91 nM, the “T 1/2” value was determined as 37 min, the koff is 0.000309 s⁻¹ and the kon is 339000 M⁻¹ s⁻¹. In addition, in assay [2], the Kd came out at 0.226 nM, the “T 1/2” value amounted to 117 min, the koff was 9.84e-05 s⁻¹ and the kon amounted to 436000 M⁻¹ s⁻¹. In assay [3], the Kd was determined as 1.08 nM, the “T 1/2” value was found to be 43 min, the koff amounted to 0.000267 s⁻¹ and the kon worked out at 247000 M⁻¹ s⁻¹. Also, the “FACS Cell Binding (Fold Above Background)” value in assay [4] turned out to be 26 fold. Also, in assay [5], the “IC50 of Blocking 5 nM PRL [M] (STAT5-Luc reporter, HEK293/hPRLR/STAT5-Luc cells)” value turned out to be 2.7e-11 M and the “Percent Blocking at 100 nM Antibody” value is 100%.

B3: H1H6792P (antibody, human IgG1, V domains shown)
VH: EVQLVESGGGLVQPGRSLRLSCAASGFTLDDHAVHWVRQAPGKGLEWVSGISWNSVYIDYADSVKGRFTIFRDNAKNSLYLQMNSLRAEDTAFYYCARDIEGARDYWGQGTLVTVSS
VL: DIQMTQSPSSLSASVGDRVTITCRASQGIRNDLGWYQQKPGKAPKRLIYAASSLQSGVPSRFSGSGYGTEFTLTISSLQPEDFAPYYCLQHNSYPLTFGGGTKVEIK
notes: human IgG1 Fc (H1H)
On to B3, for which, in assay [1], the Kd worked out at 5.27 nM, the “T 1/2” value stood at 5 min, the koff is 0.00229 s⁻¹ and the kon turned out to be 435000 M⁻¹ s⁻¹. Also, in assay [2], binding was put at a Kd of 0.352 nM, the “T 1/2” value worked out at 66 min, the koff was 0.000176 s⁻¹ and the kon is 499000 M⁻¹ s⁻¹. Also, in assay [3], the Kd was 9.37 nM, the “T 1/2” value was determined as 4 min, the koff was 0.00286 s⁻¹ and the kon was 305000 M⁻¹ s⁻¹. Besides, the “FACS Cell Binding (Fold Above Background)” value in assay [4] worked out at 28 fold. Moreover, in assay [5], the “IC50 of Blocking 5 nM PRL [M] (STAT5-Luc reporter, HEK293/hPRLR/STAT5-Luc cells)” value turned out to be 5.7e-10 M and the “Percent Blocking at 100 nM Antibody” value stood at 100%.

B4: H1H6783P (antibody, human IgG1, V domains shown)
VH: QVQLQQSGPGLVKPSQTLSLTCAISGDSVSSNTFAWNWIRQSPSRGLEWLGRTYYRSKWYIDYAESVKSRITITPDTSKNQFSLQLNSVTPEDTALYYCAGGYTYAPRGAFDIWGQGTMVTVSS
VL: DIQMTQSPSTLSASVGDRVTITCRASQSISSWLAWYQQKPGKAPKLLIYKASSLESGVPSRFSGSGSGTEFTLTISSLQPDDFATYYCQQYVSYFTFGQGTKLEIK
notes: human IgG1 Fc (H1H)
Take B4: in assay [1], binding was put at a Kd of 3.91 nM, the “T 1/2” value was determined as 7 min, the koff came out at 0.00161 s⁻¹ and the kon stood at 411000 M⁻¹ s⁻¹. For the same molecule, in assay [2], binding was characterised by a dissociation constant (Kd) of 0.282 nM, the “T 1/2” value was 83 min, the koff was determined as 0.000138 s⁻¹ and the kon was 491000 M⁻¹ s⁻¹. Besides, in assay [3], binding was characterised by a dissociation constant (Kd) of 4.74 nM, the “T 1/2” value is 9 min, the koff was determined as 0.0013 s⁻¹ and the on-rate constant (kon) stood at 273000 M⁻¹ s⁻¹. For the same molecule, in assay [4], the “FACS Cell Binding (Fold Above Background)” value was determined as 27 fold. In addition, the “Percent Blocking at 100 nM Antibody” value in assay [5] amounted to 59%.

B5: H1H6967N (antibody, human IgG1, V domains shown)
VH: EVQLVESGGDLVHPGRSLRLSCAASGFPFDEYAMHWVRQVPGKGLEWVSGISWSNNNIGYADSVKGRFTISRDNAKNSLYLQMNSLRPEDTAFYYCAKSGIFDSWGQGTLVTVSS
VL: EIVMTQSPATLSVSPGERATLSCRASQSVSRDLAWYQQKPGQAPRLLIHGASTRATGIPARFSGSGSGAEFTLIISSLQSEDFAVYYCQQYNNWPLTFGGGTKVEIK
notes: also called H2M6967N
Consider B5, for which, in assay [1], the Kd worked out at 2.2 nM, the “T 1/2” value stood at 12.4 min, the koff turned out to be 0.000933 s⁻¹ and the kon came out at 424000 M⁻¹ s⁻¹. Further, in assay [2], binding was put at a Kd of 0.107 nM, the “T 1/2” value was 119 min, the koff is 9.73e-05 s⁻¹ and the kon was determined as 907000 M⁻¹ s⁻¹. In assay [3], the Kd was found to be 4.54 nM, the “T 1/2” value came out at 7.1 min, the koff came out at 0.00162 s⁻¹ and the kon turned out to be 356000 M⁻¹ s⁻¹. In addition, the “FACS Cell Binding (Fold Above Background)” value in assay [4] is 28 fold. In assay [5], the “IC50 of Blocking 5 nM PRL [M] (STAT5-Luc reporter, HEK293/hPRLR/STAT5-Luc cells)” value came to 7.68e-10 M and the “Percent Blocking at 100 nM Antibody” value was determined as 100%.

B6: H1H6774P (antibody, human IgG1, V domains shown)
VH: EVQLVESGGGLAQPGGSLRLSCVASGFTFSTYWMSWVRQAPGKGLDWVGNIKQDGSEQNYVDSVRGRFTISRDNAKNSLFLQMNSLRAEDTGVYYCATLLTKGDYWGQGTLVTVSS
VL: DIQMTQSPSSLSASVGDSVTITCRASQDISNYLDWFQQKPGKAPKSLIYAASILQGGVPSRFSGSGYGTDFTLTISSLQPEDFATYYCRQYKTYPFTFGPGTKVDIK
notes: human IgG1 Fc (H1H)
On to B6, for which, in assay [1], binding was put at a Kd of 2.95 nM, the “T 1/2” value turned out to be 4 min, the koff was found to be 0.00317 s⁻¹ and the kon worked out at 1.07e+06 M⁻¹ s⁻¹. For the same molecule, in assay [2], binding was put at a Kd of 0.138 nM, the “T 1/2” value is 60 min, the koff worked out at 0.000194 s⁻¹ and the kon is 1.41e+06 M⁻¹ s⁻¹. Further, in assay [3], the Kd turned out to be 5 nM, the “T 1/2” value came out at 3 min, the koff was determined as 0.00361 s⁻¹ and the kon was 723000 M⁻¹ s⁻¹. Also, the “FACS Cell Binding (Fold Above Background)” value in assay [4] came out at 29 fold. Besides, the “Percent Blocking at 100 nM Antibody” value in assay [5] was found to be 0%.
